Test results published in article doi:10.1101/758698.

How the values were obtained:
Test in all cases: fluorescence polarization
hBrr2T1-SS-rot+ = hBrr2T1-SS-rot+ (human, UniProt O75643 395-2129, D534C;N1866C)
hBrr2T1-SS-linear = hBrr2T1-SS-linear (human, UniProt O75643 395-2129, M641C;A1582C)
hBrr2T1 = hBrr2T1 (human, UniProt O75643 395-2129)

Measured: binding result

Sequence of hBrr2T1 (O75643 395-2129): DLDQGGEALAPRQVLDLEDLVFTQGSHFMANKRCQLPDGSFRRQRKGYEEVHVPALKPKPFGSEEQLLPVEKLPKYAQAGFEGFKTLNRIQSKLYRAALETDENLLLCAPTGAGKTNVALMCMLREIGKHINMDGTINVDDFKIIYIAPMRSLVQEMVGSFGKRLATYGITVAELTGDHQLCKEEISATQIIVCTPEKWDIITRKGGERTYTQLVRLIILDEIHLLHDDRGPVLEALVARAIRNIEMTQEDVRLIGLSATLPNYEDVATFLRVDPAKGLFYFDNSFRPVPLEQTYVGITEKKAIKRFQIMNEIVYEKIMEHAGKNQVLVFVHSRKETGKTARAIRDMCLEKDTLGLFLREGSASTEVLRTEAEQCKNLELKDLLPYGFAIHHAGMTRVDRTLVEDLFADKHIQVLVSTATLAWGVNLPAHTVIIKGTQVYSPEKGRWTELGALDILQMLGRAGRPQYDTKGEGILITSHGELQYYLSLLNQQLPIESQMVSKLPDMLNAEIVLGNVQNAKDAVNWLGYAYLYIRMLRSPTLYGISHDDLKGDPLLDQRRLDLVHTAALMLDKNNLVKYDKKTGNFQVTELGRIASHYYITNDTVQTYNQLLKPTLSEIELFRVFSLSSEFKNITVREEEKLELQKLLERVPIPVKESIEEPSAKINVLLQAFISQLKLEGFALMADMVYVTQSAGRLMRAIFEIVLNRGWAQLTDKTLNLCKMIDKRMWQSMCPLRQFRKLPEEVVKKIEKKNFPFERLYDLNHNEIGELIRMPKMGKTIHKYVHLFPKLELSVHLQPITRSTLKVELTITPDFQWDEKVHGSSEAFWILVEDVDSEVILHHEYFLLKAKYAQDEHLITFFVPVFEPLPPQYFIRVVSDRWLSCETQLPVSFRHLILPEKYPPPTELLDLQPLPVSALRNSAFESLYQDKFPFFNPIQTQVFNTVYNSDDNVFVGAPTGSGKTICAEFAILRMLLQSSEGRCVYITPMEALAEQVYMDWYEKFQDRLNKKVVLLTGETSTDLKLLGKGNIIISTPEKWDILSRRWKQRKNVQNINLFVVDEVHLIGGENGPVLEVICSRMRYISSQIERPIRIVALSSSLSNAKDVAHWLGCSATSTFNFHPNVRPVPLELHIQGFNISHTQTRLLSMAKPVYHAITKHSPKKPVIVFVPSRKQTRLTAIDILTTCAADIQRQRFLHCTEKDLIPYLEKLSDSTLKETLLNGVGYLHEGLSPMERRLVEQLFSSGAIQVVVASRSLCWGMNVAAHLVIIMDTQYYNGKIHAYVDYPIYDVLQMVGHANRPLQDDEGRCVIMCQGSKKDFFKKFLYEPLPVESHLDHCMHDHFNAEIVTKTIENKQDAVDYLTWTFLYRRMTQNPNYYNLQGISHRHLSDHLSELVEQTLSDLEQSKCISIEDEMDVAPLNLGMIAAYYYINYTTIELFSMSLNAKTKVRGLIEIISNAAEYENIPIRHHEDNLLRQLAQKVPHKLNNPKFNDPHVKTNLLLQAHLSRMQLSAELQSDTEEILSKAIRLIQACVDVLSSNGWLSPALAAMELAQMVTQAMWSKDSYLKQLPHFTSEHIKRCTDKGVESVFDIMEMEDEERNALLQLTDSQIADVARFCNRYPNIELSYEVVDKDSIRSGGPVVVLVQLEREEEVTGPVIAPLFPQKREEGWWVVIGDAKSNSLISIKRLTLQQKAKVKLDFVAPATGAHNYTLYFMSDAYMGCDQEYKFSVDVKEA
Sequence of hBrr2T1-SS-linear (O75643 395-2129 M641C/A1582C): as the sequence (O75643 395-2129) above, with M247C, A1188C counted along it
Sequence of hBrr2T1-SS-rot+ (O75643 395-2129 D534C/N1866C): as the sequence (O75643 395-2129) above, with D140C, N1472C counted along it

B1: RNA duplex with 3' ss overhang (dsRNA)
RNA 1: CGCGUGCUGGUCGAAAUUUAAUUAUAAACCAGACCGUC
RNA 2: GACCAGCACGCG
binds: all assays above
